# Reference: article doi:10.1101/2025.11.13.688182
# Target: RAD51 full-length [F86E, A89E], co-expressed with BRC repeats (human) (UniProt Q06609)
# Assay: SEC-SAXS
# Chain of UniProt Q06609 (Q06609 whole entry F86E/A89E): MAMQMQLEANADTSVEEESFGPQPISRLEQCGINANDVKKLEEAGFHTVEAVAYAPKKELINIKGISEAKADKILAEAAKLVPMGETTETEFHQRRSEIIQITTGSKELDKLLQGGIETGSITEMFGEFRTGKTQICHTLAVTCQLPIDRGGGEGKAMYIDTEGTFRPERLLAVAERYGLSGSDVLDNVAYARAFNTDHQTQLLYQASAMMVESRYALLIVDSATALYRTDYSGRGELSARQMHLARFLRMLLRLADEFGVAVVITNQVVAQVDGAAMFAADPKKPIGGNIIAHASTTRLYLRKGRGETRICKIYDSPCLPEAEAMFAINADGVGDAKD
row,Substance,"stoichiometry, BRC repeats to RAD51 (RAD51 per BRC repeat)"
1,BRCA2 truncation BRC3-4 (from UniProt P51587 1-3418) (domain or fragment),1
2,BRCA2 truncation BRC1-2 (from UniProt P51587 1-3418) (domain or fragment),1
3,BRCA2 truncation BRC2-4 (from UniProt P51587 1-3418) (domain or fragment),1
4,BRCA2 truncation BRC2-3 (from UniProt P51587 1-3418) (domain or fragment),1
5,BRCA2 truncation BRC1-4 (from UniProt P51587 1-3418) (domain or fragment),1
